Measurements reported in US20250108132A1.

Target: purified cyno C3 protein (CompTech, CY113) (cynomolgous monkey (Macaca fascicularis))
Test: sandwich ELISA; known concentrations of purified cyno C3 read on the human C3 kit, relative to human C3

- cross-reactivity: 30%
Substance: human C3 ELISA kit (Abcam, ab108823) (antibody)
